The record followed here is the supplement of paper PMC10567573.

The chains are these.
B1: TAF7L (parent)
chain: PDVENEVKRLLRSDAEAVSTRWEV
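Further: lentivirally expressed fusions sorted by FACS into six bins by GFP to DsRed ratio, PSI derived from sequencing read proportions per bin multiplied by bin number.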

In the data set the parent is B1. Description: protein stability index of a GFP-peptide fusion (GPS, HEK-293T) (PSI 1-6); higher = more stable. Conditions: c terminus: a fixed tail appended.
PDVENEVKCLLRSDAEAVSTRWEV [R9C]: the protein stability index is 3.39.

Regarding PDVENEVKQLLRSDAEAVSTRWEV [R9Q], the protein stability index came to 3.83.

On to PDVENEVKTLLRSDAEAVSTRWEV [R9T], for which the protein stability index came out at 3.44.

On to PDVENEVKLLLRSDAEAVSTRWEV [R9L], for which the protein stability index was 3.29.

PDVENEVKMLLRSDAEAVSTRWEV [R9M]: the protein stability index worked out at 3.96.

As to PDVENEVKFLLRSDAEAVSTRWEV [R9F], the protein stability index came out at 2.69.

On to PDVENEVKPLLRSDAEAVSTRWEV [R9P], for which the protein stability index is 4.17.

On to PDVENEVKHLLRSDAEAVSTRWEV [R9H], for which the protein stability index stood at 4.05.

As to PDVENEVKKLLRSDAEAVSTRWEV [R9K], the protein stability index was determined as 4.02.

PDVENEVKGLLRSDAEAVSTRWEV [R9G]: the protein stability index was 3.57.

PDVENEVKYLLRSDAEAVSTRWEV [R9Y]: the protein stability index came out at 2.41.

As to PDVENEVKNLLRSDAEAVSTRWEV [R9N], the protein stability index was found to be 3.66.

As for PDVENEVKDLLRSDAEAVSTRWEV [R9D], the protein stability index amounted to 4.41.

On to PDVENEVKRLLRSDAEAVSARWEV [T20A], for which the protein stability index is 4.18.

As for PDVENEVPRLLRSDAEAVSTRWEV [K8P], the protein stability index worked out at 4.16.

As for PDVENEVMRLLRSDAEAVSTRWEV [K8M], the protein stability index worked out at 2.78.

As to PDVENEVQRLLRSDAEAVSTRWEV [K8Q], the protein stability index was determined as 3.34.

On to PDVENEVFRLLRSDAEAVSTRWEV [K8F], for which the protein stability index came out at 2.2.

In the case of PDVENEVVRLLRSDAEAVSTRWEV [K8V], the protein stability index was found to be 3.44.

Consider PDVENEVNRLLRSDAEAVSTRWEV [K8N], for which the protein stability index was 3.08.

On to PDVENEVWRLLRSDAEAVSTRWEV [K8W], for which the protein stability index turned out to be 2.19.

For the variant PDVENEVYRLLRSDAEAVSTRWEV [K8Y], the protein stability index was 2.23.

For the variant PDVENEVCRLLRSDAEAVSTRWEV [K8C], the protein stability index was determined as 3.23.

Take PDVENEVERLLRSDAEAVSTRWEV [K8E]: the protein stability index stood at 3.6.

Regarding PDVENEVIRLLRSDAEAVSTRWEV [K8I], the protein stability index turned out to be 2.51.

Consider PDVENEVHRLLRSDAEAVSTRWEV [K8H], for which the protein stability index stood at 4.25.

PDVENEMKRLLRSDAEAVSTRWEV [V7M]: the protein stability index came out at 3.47.

On to PDVENEIKRLLRSDAEAVSTRWEV [V7I], for which the protein stability index is 2.73.

As for PDVENEYKRLLRSDAEAVSTRWEV [V7Y], the protein stability index turned out to be 3.31.

On to PDVENEHKRLLRSDAEAVSTRWEV [V7H], for which the protein stability index worked out at 4.06.

Regarding PDVENEPKRLLRSDAEAVSTRWEV [V7P], the protein stability index came to 4.57.

Turning to PDVENEWKRLLRSDAEAVSTRWEV [V7W], the protein stability index was 3.13.

Turning to PDVENEQKRLLRSDAEAVSTRWEV [V7Q], the protein stability index amounted to 3.68.

For PDVENEGKRLLRSDAEAVSTRWEV [V7G], the protein stability index is 4.2.

Take PDVENEKKRLLRSDAEAVSTRWEV [V7K]: the protein stability index worked out at 4.23.

As for PDVENETKRLLRSDAEAVSTRWEV [V7T], the protein stability index amounted to 4.13.

Consider PDVENECKRLLRSDAEAVSTRWEV [V7C], for which the protein stability index came to 3.07.

As for PDVENESKRLLRSDAEAVSTRWEV [V7S], the protein stability index came to 3.56.

Regarding PDVENENKRLLRSDAEAVSTRWEV [V7N], the protein stability index stood at 2.94.

Regarding PDVEMEVKRLLRSDAEAVSTRWEV [N5M], the protein stability index came to 2.81.

As to PDVEPEVKRLLRSDAEAVSTRWEV [N5P], the protein stability index is 3.57.

PDVEAEVKRLLRSDAEAVSTRWEV [N5A]: the protein stability index is 3.79.

Consider PDVEKEVKRLLRSDAEAVSTRWEV [N5K], for which the protein stability index stood at 3.21.

With PDVEFEVKRLLRSDAEAVSTRWEV [N5F], the protein stability index was 2.62.

Consider PDVELEVKRLLRSDAEAVSTRWEV [N5L], for which the protein stability index worked out at 2.82.

Turning to PDVEYEVKRLLRSDAEAVSTRWEV [N5Y], the protein stability index turned out to be 3.1.

As for PDVEWEVKRLLRSDAEAVSTRWEV [N5W], the protein stability index stood at 2.95.

For PDVESEVKRLLRSDAEAVSTRWEV [N5S], the protein stability index came to 2.03.

For the variant PDVEQEVKRLLRSDAEAVSTRWEV [N5Q], the protein stability index amounted to 3.07.

In the case of PDVENEVKRLLPSDAEAVSTRWEV [R12P], the protein stability index came to 4.61.

PDVENEVKRLLVSDAEAVSTRWEV [R12V]: the protein stability index came to 2.96.

Take PDVENEVKRLLWSDAEAVSTRWEV [R12W]: the protein stability index is 2.33.

For the variant PDVENEVKRLLESDAEAVSTRWEV [R12E], the protein stability index amounted to 4.54.

In the case of PDVENEVKRLLNSDAEAVSTRWEV [R12N], the protein stability index was 3.87.

On to PDVENEVKRLLHSDAEAVSTRWEV [R12H], for which the protein stability index came out at 4.38.

For the variant PDVENEVKRLLDSDAEAVSTRWEV [R12D], the protein stability index was 4.

PDVENEVKRLLYSDAEAVSTRWEV [R12Y]: the protein stability index was 3.96.

With PDVENEVKRLLSSDAEAVSTRWEV [R12S], the protein stability index came out at 3.75.

In the case of PDVENEVKRLLCSDAEAVSTRWEV [R12C], the protein stability index came out at 2.99.

With PDVENEVKRLLFSDAEAVSTRWEV [R12F], the protein stability index was determined as 2.88.

PDVENEVKRLLKSDAEAVSTRWEV [R12K]: the protein stability index came to 4.19.

In the case of PDVENEVKRLLASDAEAVSTRWEV [R12A], the protein stability index amounted to 3.5.

PDVENEVKRLLRMDAEAVSTRWEV [S13M]: the protein stability index is 3.54.

For the variant PDVENEVKRLLRQDAEAVSTRWEV [S13Q], the protein stability index stood at 2.09.

Regarding PDVENEVKRLLRFDAEAVSTRWEV [S13F], the protein stability index stood at 1.9.

Turning to PDVENEVKRLLRDDAEAVSTRWEV [S13D], the protein stability index was 4.14.

With PDVENEVKRLLRHDAEAVSTRWEV [S13H], the protein stability index came to 2.53.

In the case of PDVENEVKRLLRGDAEAVSTRWEV [S13G], the protein stability index stood at 3.02.

On to PDVENEVKRLLRNDAEAVSTRWEV [S13N], for which the protein stability index was 3.53.

PDVENEVKRLLRIDAEAVSTRWEV [S13I]: the protein stability index turned out to be 3.29.

On to PDVENEVKRLLRYDAEAVSTRWEV [S13Y], for which the protein stability index is 2.87.

PDVENEVKRLLREDAEAVSTRWEV [S13E]: the protein stability index came out at 4.19.

With PDVENEVKRLLRPDAEAVSTRWEV [S13P], the protein stability index was 4.71.

In the case of PDVENEVKRLLRKDAEAVSTRWEV [S13K], the protein stability index was 3.76.

Consider PDVKNEVKRLLRSDAEAVSTRWEV [E4K], for which the protein stability index came to 3.35.

On to PDVPNEVKRLLRSDAEAVSTRWEV [E4P], for which the protein stability index amounted to 3.86.

In the case of PDVMNEVKRLLRSDAEAVSTRWEV [E4M], the protein stability index amounted to 1.69.

In the case of PDVDNEVKRLLRSDAEAVSTRWEV [E4D], the protein stability index was 2.19.

For PDVWNEVKRLLRSDAEAVSTRWEV [E4W], the protein stability index stood at 1.93.

Turning to PDVTNEVKRLLRSDAEAVSTRWEV [E4T], the protein stability index came out at 3.17.

In the case of PDVQNEVKRLLRSDAEAVSTRWEV [E4Q], the protein stability index was determined as 3.21.

PDVGNEVKRLLRSDAEAVSTRWEV [E4G]: the protein stability index was determined as 2.92.

Take PDVANEVKRLLRSDAEAVSTRWEV [E4A]: the protein stability index was 4.39.

Regarding PDVVNEVKRLLRSDAEAVSTRWEV [E4V], the protein stability index is 2.76.

As to PDVFNEVKRLLRSDAEAVSTRWEV [E4F], the protein stability index was found to be 1.

With PDVNNEVKRLLRSDAEAVSTRWEV [E4N], the protein stability index stood at 3.05.

In the case of PDVCNEVKRLLRSDAEAVSTRWEV [E4C], the protein stability index amounted to 2.38.

As for PDVYNEVKRLLRSDAEAVSTRWEV [E4Y], the protein stability index is 3.14.

For the variant PDVENEVKRHLRSDAEAVSTRWEV [L10H], the protein stability index was found to be 3.82.

On to PDVENEVKRTLRSDAEAVSTRWEV [L10T], for which the protein stability index amounted to 4.36.

Regarding PDVENEVKRKLRSDAEAVSTRWEV [L10K], the protein stability index was 3.8.

For PDVENEVKRWLRSDAEAVSTRWEV [L10W], the protein stability index amounted to 2.86.

In the case of PDVENEVKRQLRSDAEAVSTRWEV [L10Q], the protein stability index came out at 3.25.

For the variant PDVENEVKRFLRSDAEAVSTRWEV [L10F], the protein stability index worked out at 3.42.
